Among the data in PMC6706414 are percent of the NCP band shifted values, retold here.

The target of this experiment is Mimic of H2B ubiquitinated nucleosome core particle with H3K36M (ubiquitin fused to H2A R17, H2B, H3K36M, H4, 149 bp 601 DNA) (S. cerevisiae | Xenopus laevis) (UniProt P0CG63). Briefly: native gel or EMSA; native PAGE; NCPs and Set2 incubated for 1 h on ice in 25 mM HEPES, pH 7.5, 50 mM NaCl, 1 mM DTT, 160 μm SAM. A general note: A gel shift assay detects complexes by their altered migration in electrophoresis.
UniProt P0CG63, sequence (P0CG63 whole entry, looked up, the tested form may be a part): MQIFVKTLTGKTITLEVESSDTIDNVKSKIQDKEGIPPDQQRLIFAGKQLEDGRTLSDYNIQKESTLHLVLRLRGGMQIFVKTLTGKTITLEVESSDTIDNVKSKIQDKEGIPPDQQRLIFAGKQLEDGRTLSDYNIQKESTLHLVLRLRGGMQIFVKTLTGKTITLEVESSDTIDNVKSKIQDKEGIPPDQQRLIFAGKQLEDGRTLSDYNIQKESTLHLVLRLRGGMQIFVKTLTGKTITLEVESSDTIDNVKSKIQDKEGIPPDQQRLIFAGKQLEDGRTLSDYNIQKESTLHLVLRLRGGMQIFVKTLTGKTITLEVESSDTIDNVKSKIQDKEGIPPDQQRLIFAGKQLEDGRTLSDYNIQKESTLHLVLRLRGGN

Turning to “Chaetomium thermophilum Set2 methyltransferase, full-length (enzyme)”, the percent of the NCP band shifted at twofold excess of Set2 was 50%.
